{"source": "patent US6750057", "about": "(UNIVERSITY OF FLORIDA, dated 2004)", "biological_target": "Native MBP (UniProt P0AEX9 27-392 = MBP)", "assay": "in vitro pull-down on amylose resin, SDS-PAGE and autoradiography", "protocol": "The ^35S-labeled XA21 kinase was then incubated with resin-bound MBP or MBP fusion proteins (1 ug) in the binding buffer [20 mM Hepes (pH 7.4), 1 mM EDTA, 5 mM MgCl_2, 1 mM DTT, 0.1% Triton X-100, 1 mg/ml BSA, 1× complete protease inhibitors (Roche Diagnostics)] for 120 min at 4° C. with gentle shaking. After washing with the washing buffer [20 mM Hepes (pH 7.4), 1 mM EDTA, 5 mM MgCl_2, 1 mM DTT, 0.1% Triton X-100] five times, the bound proteins were eluted with the washing buffer supplemented with 10 mM maltose and resolved by 8% SDS-PAGE according to Laemmli. Laemmli, Nature 227, 680 (1970). The gel was stained with Coomassie brilliant blue R-250, dried, and exposed to X-ray film.", "data": [{"binder": "35S-labeled XA21 kinase (enzyme, 35S-methionine labelled by in vitro transcription/translation. The label does not change the letters., Made with the TnT kit from a pET-28a construct; also called XA21 protein labeled with 35S; not shown: Vector-encoded N-terminal leader of pET-28a (His/T7 tag and the few residues from the BamHI/SalI primer sites)) HKRTKKGAPSRTSMKGHPLVSYSQLVKATDGFAPTNLLGSGSFGSVYKGKLNIQDHVAVKVLKLENPKALKSFTAECEALRNMRHRNLVKIVTICSSIDNRGNDFKAIVYDFMPNGSLEDWIHPETNDQADQRHLNLHRRVTILLDVACALDYLHRHGPEPVVHCDIKSSNVLLDSDMVAHVGDFGLARILVDGTSLIQQSTSSMGFIGTIGYAAPEYGVGLIASTHGDIYSYGILVLEIVTGKRPTDSTFRPDLGLRQYVELGLHGRVTDVVDTKLILDSENWLNSTNNSPCRRITECIVWLLRLGLSCSQELPSSRTPTGDIIDELNAIKQNLSGLFPVCEGGSLEF", "values": [{"measurement": "binding result", "value": "no binding (tested: 1 ug resin-bound protein)"}]}]}
